# From US20030077693A1
# Tests used:
# [1] = target: Thy-1 on EL-4 mouse lymphoma cells (mouse) (UniProt P01831); experiment: FACS, EL-4 cells after Pronase treatment, staining against untreated stained cells
# [2] = target: Thy-1 on EL-4 mouse lymphoma cells (mouse) (UniProt P01831); experiment: FACS, EL-4 cells after PI-PLC treatment, staining against untreated stained cells
# [3] = target: p97 (melanotransferrin), GPI-anchored, on the cell surface (human) (UniProt P08582); experiment: FACS, p97aWTBc7 cells after PI-PLC treatment, staining against untreated stained cells
# [4] = target: transferrin added to TRVb and TRVb-1 cells (30 µg/mL, Example 19) (UniProt P02787); experiment: Pandex cell fluorescence, plate 925 (unlabelled Abs then GAM FITC), acid washed TRVb-1 cells + Tf only, stained with L235 (specificity control)
# [5] = target: transferrin added to TRVb and TRVb-1 cells (30 µg/mL, Example 19) (UniProt P02787); experiment: Pandex cell fluorescence, plate 922 (FITC Abs pre-incubated with GAM FITC), acid washed TRVb-1 cells + Tf only, stained with L235 (specificity control)
# [6] = target: p97 (melanotransferrin), GPI-anchored, on the cell surface (human) (UniProt P08582); experiment: FACS, Sf9 cells infected with p97 recombinant virus p97 B-2-1, L235 + GAM IgG-FITC
# [7] = target: p97 (melanotransferrin), GPI-anchored, on the cell surface (human) (UniProt P08582); experiment: FACS, p97aWTBc3 cells after PI-PLC treatment, staining against untreated stained cells
# [8] = target: p97 (melanotransferrin), GPI-anchored, on the cell surface (human) (UniProt P08582); experiment: cell-based or functional assay
# [9] = target: transferrin added to TRVb and TRVb-1 cells (30 µg/mL, Example 19) (UniProt P02787); experiment: Pandex cell fluorescence, plate 925 (unlabelled Abs then GAM FITC), untreated TRVb-1 cells + Tf only, stained with L235 (specificity control)
# [10] = target: p97 (melanotransferrin), GPI-anchored, on the cell surface (human) (UniProt P08582); experiment: FACS, SK-MEL-28 cells, L235 hybridoma supernatant + GAM IgG-FITC
# [11] = target: p97 (melanotransferrin), GPI-anchored, on the cell surface (human) (UniProt P08582); experiment: FACS, SK-MEL-28 cells after Pronase treatment, staining against untreated stained cells
# [12] = target: p97 (melanotransferrin), GPI-anchored, on the cell surface (human) (UniProt P08582); experiment: FACS, SK-MEL-28 cells after PI-PLC treatment, staining against untreated stained cells
# [13] = target: p97 (melanotransferrin), GPI-anchored, on the cell surface (human) (UniProt P08582); experiment: FACS, Sf9 cells infected with p97 recombinant virus p97 B-1-1, L235 + GAM IgG-FITC
# [14] = target: transferrin added to TRVb and TRVb-1 cells (30 µg/mL, Example 19) (UniProt P02787); experiment: Pandex cell fluorescence, plate 922 (FITC Abs pre-incubated with GAM FITC), untreated TRVb-1 cells + Tf only, stained with L235 (specificity control)
# [15] = target: p97 (melanotransferrin), GPI-anchored, on the cell surface (human) (UniProt P08582); experiment: FACS, SK-MEL-28 cells pre-incubated with PI-PLC (removes p97), L235 + GAM IgG-FITC
# [16] = target: p97 (melanotransferrin), GPI-anchored, on the cell surface (human) (UniProt P08582); experiment: FACS, Sf9 cells infected with p97 B-2-1, pre-incubated with PI-PLC, L235 + GAM IgG-FITC
# [17] = target: transferrin added to TRVb and TRVb-1 cells (30 µg/mL, Example 19) (UniProt P02787); experiment: Pandex cell fluorescence, plate 919, untreated TRVb-1 cells + Tf only, stained with L235 (specificity control)
# [18] = target: p97 (melanotransferrin), GPI-anchored, on the cell surface (human) (UniProt P08582); experiment: FACS, Sf9 cells infected with p97 B-1-1, pre-incubated with PI-PLC, L235 + GAM IgG-FITC
# [19] = target: transferrin added to TRVb and TRVb-1 cells (30 µg/mL, Example 19) (UniProt P02787); experiment: Pandex cell fluorescence, plate 919, acid washed TRVb-1 cells + Tf only, stained with L235 (specificity control)
# [20] = target: human transferrin receptor on cells (human) (UniProt P02786); experiment: Pandex cell fluorescence, plate 911, acid washed TRVb-1 cells, OKT9 then GAM FITC
# [21] = target: human transferrin receptor on cells (human) (UniProt P02786); experiment: FACS, SK-MEL-28 cells after Pronase treatment, staining against untreated stained cells
# [22] = target: human transferrin receptor on cells (human) (UniProt P02786); experiment: FACS, SK-MEL-28 cells after PI-PLC treatment, staining against untreated stained cells
# [23] = target: human transferrin receptor on cells (human) (UniProt P02786); experiment: Pandex cell fluorescence, plate 919, acid washed TRVb-1 cells, OKT9 then GAM FITC
# [24] = target: human transferrin receptor on cells (human) (UniProt P02786); experiment: Pandex cell fluorescence, plate 911, untreated TRVb-1 cells, OKT9 then GAM FITC
# [25] = target: human transferrin receptor on cells (human) (UniProt P02786); experiment: Pandex cell fluorescence, plate 919, untreated TRVb-1 cells, OKT9 then GAM FITC
# Sequence of UniProt P08582 (P08582 20-709): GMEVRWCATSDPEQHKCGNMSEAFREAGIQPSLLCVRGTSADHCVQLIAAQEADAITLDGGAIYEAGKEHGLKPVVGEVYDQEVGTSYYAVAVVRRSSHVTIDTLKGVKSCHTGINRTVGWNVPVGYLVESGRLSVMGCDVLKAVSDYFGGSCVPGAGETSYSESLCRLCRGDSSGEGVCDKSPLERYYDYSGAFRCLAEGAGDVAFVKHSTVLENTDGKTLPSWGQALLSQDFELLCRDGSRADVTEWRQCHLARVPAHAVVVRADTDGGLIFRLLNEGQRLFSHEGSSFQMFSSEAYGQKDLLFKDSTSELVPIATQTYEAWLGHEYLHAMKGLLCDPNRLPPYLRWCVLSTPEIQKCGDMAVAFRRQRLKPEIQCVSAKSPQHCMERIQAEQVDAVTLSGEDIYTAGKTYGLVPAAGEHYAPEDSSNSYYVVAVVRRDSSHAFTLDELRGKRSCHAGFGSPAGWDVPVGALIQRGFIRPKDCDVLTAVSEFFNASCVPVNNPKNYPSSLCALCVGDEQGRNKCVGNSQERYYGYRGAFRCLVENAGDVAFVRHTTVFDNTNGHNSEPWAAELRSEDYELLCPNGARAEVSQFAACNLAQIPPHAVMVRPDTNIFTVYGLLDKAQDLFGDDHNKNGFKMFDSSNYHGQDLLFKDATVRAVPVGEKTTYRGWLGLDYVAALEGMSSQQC
# Sequence of UniProt P02787 (P02787 20-698 limits assumed): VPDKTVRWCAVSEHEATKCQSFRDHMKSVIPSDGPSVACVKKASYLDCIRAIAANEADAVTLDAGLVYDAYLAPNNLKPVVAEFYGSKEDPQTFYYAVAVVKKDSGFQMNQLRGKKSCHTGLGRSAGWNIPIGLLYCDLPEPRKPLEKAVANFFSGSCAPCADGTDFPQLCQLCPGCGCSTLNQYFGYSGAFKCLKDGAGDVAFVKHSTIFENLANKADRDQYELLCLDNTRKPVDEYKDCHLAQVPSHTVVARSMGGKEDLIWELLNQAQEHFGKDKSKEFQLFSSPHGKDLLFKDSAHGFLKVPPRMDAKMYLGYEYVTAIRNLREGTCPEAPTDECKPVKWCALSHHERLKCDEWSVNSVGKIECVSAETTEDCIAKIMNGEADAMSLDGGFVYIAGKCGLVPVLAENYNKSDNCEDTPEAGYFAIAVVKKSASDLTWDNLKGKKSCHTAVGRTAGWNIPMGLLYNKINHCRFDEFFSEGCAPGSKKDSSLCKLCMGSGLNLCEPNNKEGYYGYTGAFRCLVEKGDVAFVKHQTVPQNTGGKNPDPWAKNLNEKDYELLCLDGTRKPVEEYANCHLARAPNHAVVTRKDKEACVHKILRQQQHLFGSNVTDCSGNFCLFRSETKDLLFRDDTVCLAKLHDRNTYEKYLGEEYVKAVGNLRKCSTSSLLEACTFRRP
# Sequence of UniProt P02786 (P02786 whole entry): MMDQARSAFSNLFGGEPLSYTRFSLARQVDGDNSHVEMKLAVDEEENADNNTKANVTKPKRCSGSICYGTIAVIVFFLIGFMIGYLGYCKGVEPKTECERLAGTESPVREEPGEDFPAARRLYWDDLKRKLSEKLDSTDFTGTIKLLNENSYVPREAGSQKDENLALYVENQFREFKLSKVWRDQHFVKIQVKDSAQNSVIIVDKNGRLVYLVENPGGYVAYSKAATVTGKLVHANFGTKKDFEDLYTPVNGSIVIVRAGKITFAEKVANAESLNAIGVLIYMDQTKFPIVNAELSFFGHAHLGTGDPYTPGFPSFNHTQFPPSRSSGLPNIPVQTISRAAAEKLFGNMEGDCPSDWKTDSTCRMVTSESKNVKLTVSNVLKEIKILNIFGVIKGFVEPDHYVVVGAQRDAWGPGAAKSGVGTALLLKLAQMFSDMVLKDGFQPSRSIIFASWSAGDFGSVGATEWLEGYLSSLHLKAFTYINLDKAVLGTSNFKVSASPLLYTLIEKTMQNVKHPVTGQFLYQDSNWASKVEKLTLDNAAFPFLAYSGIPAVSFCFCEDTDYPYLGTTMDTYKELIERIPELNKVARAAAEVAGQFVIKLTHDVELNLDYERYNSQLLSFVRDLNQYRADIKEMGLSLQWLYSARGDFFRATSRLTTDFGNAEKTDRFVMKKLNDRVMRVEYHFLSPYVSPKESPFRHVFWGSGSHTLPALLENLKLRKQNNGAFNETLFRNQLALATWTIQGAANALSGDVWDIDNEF
# Sequence of UniProt P01831 (P01831 20-131): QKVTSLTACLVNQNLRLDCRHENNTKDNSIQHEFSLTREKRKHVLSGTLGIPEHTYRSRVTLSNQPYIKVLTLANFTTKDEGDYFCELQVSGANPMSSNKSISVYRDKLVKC
substance,measurement,setting,value
T24/37.1 MAb (anti-Thy-1) (antibody),Fluorescene Intensity (% of Control),[1],136 % of Control
same,Fluorescene Intensity (% of Control),[2],32.5 % of Control
L235 anti-p97 mouse monoclonal antibody,Fluorescene Intensity (% of Control),[3],7.5 % of Control
same,fluorescence,[4],2710
same,fluorescence less control (TRVb),[4],758
same,fluorescence,[5],6220
same,fluorescence less control (TRVb),[5],107
same,FLUORESCENCE-converted linear value,[6],97.4
same,Fluorescene Intensity (% of Control),[7],6.8 % of Control
same,internalization of Fe from 59Fe-citrate by p97TRVb cells,[8],31%
same,fluorescence,[9],2520
same,fluorescence less control (TRVb),[9],237
same,FLUORESCENCE-converted linear value,[10],128
same,Fluorescene Intensity (% of Control),[11],82.6 % of Control
same,Fluorescene Intensity (% of Control),[12],10.8 % of Control
same,FLUORESCENCE-converted linear value,[13],112
same,fluorescence,[14],7440
same,fluorescence less control (TRVb),[14],0
same,FLUORESCENCE-converted linear value,[15],4.52
same,FLUORESCENCE-converted linear value,[16],6.85
same,fluorescence,[17],5330
same,fluorescence less control (TRVb),[17],0
same,FLUORESCENCE-converted linear value,[18],5.74
same,fluorescence,[19],5320
same,fluorescence less control (TRVb),[19],1120
OKT9 anti-human transferrin receptor mouse monoclonal antibody,fluorescence,[20],7140
same,fluorescence less control,[20],5060
same,Fluorescene Intensity (% of Control),[21],15.9 % of Control
same,Fluorescene Intensity (% of Control),[22],120 % of Control
same,fluorescence,[23],12500
same,fluorescence less control,[23],10400
same,fluorescence,[24],4760
same,fluorescence less control,[24],3250
same,fluorescence,[25],13600
same,fluorescence less control,[25],11500
